Data: PMC6053526, “Arabidopsis WRKY50 and TGA Transcription Factors Synergistically Activate Expression of PR1” (Frontiers in Plant Science, 2018)
Values belong to the binder of their own block, whether it stands above or below them.

Target: AtWRKY50 full length fused to a half of yellow fluorescent protein (BiFC) (Arabidopsis, UniProt Q8VWQ5 1-173)
Experiment: cell-based or functional assay

Chain of AtWRKY50 full length fused to a half of yellow fluorescent protein (BiFC) (Q8VWQ5 whole entry, the tested form may be a part): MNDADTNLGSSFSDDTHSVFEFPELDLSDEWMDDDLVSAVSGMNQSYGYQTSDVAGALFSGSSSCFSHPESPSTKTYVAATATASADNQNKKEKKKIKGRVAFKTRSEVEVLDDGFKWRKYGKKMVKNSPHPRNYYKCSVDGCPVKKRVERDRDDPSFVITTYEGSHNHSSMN

PR1::GUS reporter expression in Arabidopsis protoplasts co-transfected with 35S::AtWRKY50 and 35S::TGA5 (AtWRKY50 alone approximately 7-fold, TGA alone 2-fold): ≤ 14 fold
B1: TGA5 full length fused to a half of yellow fluorescent protein (BiFC) (natural protein, Arabidopsis, UniProt Q39163 1-330, looked up)
chain: MGDTSPRTSVSTDGDTDHNNLMFDEGHLGIGASDSSDRSKSKMDQKTLRRLAQNREAARKSRLRKKAYVQQLENSRLKLTQLEQELQRARQQGVFISSSGDQAHSTAGDGAMAFDVEYRRWQEDKNRQMKELSSAIDSHATDSELRIIVDGVIAHYEELYRIKGNAAKSDVFHLLSGMWKTPAERCFLWLGGFRSSELLKLIASQLEPLTEQQSLDINNLQQSSQQAEDALSQGMDNLQQSLADTLSSGTLGSSSSGNVASYMGQMAMAMGKLGTLEGFIRQADNLRLQTYQQMVRLLTTRQSARALLAVHNYTLRLRALSSLWLARPRE

PR1::GUS reporter expression in Arabidopsis protoplasts co-transfected with 35S::AtWRKY50 and 35S::TGA2 (AtWRKY50 alone approximately 7-fold, TGA alone 2-fold): ≤ 14 fold
B2: TGA2 full length fused to a half of yellow fluorescent protein (BiFC) (natural protein, Arabidopsis, UniProt P43273 1-330, looked up)
chain: MADTSPRTDVSTDDDTDHPDLGSEGALVNTAASDSSDRSKGKMDQKTLRRLAQNREAARKSRLRKKAYVQQLENSRLKLTQLEQELQRARQQGVFISGTGDQAHSTGGNGALAFDAEHSRWLEEKNKQMNELRSALNAHAGDSELRIIVDGVMAHYEELFRIKSNAAKNDVFHLLSGMWKTPAERCFLWLGGFRSSELLKLLANQLEPMTERQLMGINNLQQTSQQAEDALSQGMESLQQSLADTLSSGTLGSSSSGNVASYMGQMAMAMGKLGTLEGFIRQADNLRLQTLQQMIRVLTTRQSARALLAIHDYFSRLRALSSLWLARPRE
